Measurements as given in patent EP4775595A1 (Beijing Tuo Jie Biopharmaceutical Co. Ltd., dated 2026).
Read-outs that look alike come from different tables or passages of the source.

How the values were obtained:
[1] = molecular target: T1, hIGF-1R-ECD-avi-his (human IGF-1R extracellular region) (human, UniProt P08069 31-935); assay: SPR (Biacore T200), antigen captured by anti-His antibody on CM5 chip, antibody as analyte
T1 construct: It was captured on the chip through its His tag

[2] = molecular target: mouse IGF-1R on mouse myoblasts (C2C12) (mouse, UniProt Q60751 31-1373); assay: cell-based or functional assay
mouse IGF-1R on mouse myoblasts (C2C12), sequence (Q60751 31-1373): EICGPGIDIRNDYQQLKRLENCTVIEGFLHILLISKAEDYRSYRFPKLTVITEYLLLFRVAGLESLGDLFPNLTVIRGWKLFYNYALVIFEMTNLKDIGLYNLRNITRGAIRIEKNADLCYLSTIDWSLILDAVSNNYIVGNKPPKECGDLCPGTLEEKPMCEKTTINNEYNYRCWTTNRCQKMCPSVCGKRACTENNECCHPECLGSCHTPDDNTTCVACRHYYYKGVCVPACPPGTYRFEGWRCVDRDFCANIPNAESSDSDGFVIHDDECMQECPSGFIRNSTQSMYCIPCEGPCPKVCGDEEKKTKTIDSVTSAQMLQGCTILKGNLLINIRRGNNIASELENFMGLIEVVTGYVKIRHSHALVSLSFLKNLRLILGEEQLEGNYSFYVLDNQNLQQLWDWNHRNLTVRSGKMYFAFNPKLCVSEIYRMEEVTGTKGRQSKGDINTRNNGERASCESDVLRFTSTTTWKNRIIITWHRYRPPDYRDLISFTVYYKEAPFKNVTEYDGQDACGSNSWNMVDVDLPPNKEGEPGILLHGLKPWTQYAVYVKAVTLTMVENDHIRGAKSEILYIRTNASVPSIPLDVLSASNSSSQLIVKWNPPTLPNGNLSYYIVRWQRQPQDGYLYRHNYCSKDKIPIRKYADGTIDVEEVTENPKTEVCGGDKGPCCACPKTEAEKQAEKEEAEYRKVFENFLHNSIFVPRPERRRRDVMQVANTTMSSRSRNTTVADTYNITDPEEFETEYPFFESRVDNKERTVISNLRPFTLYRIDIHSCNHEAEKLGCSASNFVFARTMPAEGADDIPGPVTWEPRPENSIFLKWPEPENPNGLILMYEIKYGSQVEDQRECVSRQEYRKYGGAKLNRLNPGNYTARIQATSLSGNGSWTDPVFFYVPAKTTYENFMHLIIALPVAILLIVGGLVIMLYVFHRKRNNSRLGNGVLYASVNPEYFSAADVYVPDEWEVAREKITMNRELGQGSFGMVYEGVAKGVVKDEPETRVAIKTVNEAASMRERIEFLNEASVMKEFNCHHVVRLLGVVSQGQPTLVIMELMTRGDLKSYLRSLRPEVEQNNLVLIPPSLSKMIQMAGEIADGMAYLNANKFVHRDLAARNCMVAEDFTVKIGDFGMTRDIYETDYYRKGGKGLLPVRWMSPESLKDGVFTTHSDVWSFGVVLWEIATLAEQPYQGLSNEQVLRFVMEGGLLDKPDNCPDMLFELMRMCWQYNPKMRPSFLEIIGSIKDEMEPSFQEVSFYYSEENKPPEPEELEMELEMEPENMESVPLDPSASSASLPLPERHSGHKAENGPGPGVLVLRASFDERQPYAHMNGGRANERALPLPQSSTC

[3] = molecular target: T1, hIGF-1R-ECD-avi-his (human IGF-1R …); assay: SPR (Biacore T200), antigen captured by anti-His antibody on CM5 chip, antibody as analyte; remark: listed apart in the source
[4] = molecular target: T2, mouse IGF-1R (Acro, Cat. IGR-M5223) (mouse, UniProt Q60751 31-936, limits assumed); assay: as above
T2 construct: Bought reagent; also called murine IGF-1R
T2 sequence (Q60751 31-936 limits assumed): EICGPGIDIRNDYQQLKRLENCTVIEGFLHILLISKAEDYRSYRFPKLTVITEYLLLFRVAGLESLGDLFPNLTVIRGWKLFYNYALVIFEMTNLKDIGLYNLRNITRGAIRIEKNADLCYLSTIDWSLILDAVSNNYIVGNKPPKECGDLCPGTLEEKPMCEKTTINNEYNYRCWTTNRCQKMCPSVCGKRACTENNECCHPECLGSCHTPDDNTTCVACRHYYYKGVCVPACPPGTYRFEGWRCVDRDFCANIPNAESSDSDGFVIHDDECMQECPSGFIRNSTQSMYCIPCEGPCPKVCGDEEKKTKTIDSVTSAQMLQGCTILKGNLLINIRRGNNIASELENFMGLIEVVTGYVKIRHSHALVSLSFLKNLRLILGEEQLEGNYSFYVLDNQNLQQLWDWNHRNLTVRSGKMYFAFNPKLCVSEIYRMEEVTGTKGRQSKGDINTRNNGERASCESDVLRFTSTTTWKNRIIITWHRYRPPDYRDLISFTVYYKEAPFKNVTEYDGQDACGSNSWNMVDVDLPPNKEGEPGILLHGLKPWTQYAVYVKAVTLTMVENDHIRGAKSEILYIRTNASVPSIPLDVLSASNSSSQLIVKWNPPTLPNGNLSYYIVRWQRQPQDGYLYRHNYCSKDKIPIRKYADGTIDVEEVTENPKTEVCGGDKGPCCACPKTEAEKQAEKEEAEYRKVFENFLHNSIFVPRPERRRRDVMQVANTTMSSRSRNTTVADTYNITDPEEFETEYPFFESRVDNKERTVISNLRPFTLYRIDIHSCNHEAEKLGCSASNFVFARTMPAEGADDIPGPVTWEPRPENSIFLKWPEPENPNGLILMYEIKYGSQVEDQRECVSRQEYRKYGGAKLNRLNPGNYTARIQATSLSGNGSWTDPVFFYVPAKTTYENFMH

[5] = molecular target: human IGF-1R on human non-small cell lung cancer cells (A549) (human, UniProt P08069 31-1367); assay: cell-based or functional assay
human IGF-1R on human non-small cell lung cancer cells (A549), sequence (P08069 31-1367): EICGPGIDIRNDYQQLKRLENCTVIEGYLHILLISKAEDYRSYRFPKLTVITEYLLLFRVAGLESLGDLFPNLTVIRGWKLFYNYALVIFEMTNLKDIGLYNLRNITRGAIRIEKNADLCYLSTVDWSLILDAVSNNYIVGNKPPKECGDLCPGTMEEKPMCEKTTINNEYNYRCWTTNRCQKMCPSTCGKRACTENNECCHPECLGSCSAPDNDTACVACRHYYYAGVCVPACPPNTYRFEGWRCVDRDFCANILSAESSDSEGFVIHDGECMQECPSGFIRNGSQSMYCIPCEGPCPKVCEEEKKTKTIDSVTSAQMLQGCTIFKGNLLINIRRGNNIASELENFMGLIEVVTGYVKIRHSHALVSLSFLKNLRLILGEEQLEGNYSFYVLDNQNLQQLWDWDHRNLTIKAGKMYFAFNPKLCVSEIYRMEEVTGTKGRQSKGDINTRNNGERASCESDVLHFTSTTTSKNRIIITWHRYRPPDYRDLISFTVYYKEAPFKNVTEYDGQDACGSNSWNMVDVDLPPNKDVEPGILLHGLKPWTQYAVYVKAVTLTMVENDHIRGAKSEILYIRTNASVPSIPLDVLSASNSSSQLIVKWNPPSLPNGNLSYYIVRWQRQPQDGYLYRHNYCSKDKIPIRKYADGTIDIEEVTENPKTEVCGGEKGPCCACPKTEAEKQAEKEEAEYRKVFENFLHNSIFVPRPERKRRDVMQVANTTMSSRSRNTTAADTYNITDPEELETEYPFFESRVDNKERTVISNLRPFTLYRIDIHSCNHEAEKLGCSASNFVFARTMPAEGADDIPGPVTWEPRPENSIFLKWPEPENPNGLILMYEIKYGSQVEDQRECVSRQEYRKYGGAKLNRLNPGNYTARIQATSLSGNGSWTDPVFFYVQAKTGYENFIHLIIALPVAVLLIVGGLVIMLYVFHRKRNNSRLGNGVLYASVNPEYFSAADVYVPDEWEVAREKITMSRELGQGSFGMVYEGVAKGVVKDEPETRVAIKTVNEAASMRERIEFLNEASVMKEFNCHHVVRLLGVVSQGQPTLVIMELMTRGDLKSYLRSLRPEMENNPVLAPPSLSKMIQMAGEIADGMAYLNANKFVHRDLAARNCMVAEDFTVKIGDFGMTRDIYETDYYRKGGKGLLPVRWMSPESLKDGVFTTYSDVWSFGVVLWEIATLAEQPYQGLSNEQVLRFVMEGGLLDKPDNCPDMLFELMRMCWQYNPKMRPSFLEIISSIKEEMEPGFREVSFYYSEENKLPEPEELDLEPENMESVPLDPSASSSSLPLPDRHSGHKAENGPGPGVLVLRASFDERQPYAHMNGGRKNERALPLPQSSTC

T1 sequence (P08069 other isoform, or with tags, fused parts or gaps limits assumed): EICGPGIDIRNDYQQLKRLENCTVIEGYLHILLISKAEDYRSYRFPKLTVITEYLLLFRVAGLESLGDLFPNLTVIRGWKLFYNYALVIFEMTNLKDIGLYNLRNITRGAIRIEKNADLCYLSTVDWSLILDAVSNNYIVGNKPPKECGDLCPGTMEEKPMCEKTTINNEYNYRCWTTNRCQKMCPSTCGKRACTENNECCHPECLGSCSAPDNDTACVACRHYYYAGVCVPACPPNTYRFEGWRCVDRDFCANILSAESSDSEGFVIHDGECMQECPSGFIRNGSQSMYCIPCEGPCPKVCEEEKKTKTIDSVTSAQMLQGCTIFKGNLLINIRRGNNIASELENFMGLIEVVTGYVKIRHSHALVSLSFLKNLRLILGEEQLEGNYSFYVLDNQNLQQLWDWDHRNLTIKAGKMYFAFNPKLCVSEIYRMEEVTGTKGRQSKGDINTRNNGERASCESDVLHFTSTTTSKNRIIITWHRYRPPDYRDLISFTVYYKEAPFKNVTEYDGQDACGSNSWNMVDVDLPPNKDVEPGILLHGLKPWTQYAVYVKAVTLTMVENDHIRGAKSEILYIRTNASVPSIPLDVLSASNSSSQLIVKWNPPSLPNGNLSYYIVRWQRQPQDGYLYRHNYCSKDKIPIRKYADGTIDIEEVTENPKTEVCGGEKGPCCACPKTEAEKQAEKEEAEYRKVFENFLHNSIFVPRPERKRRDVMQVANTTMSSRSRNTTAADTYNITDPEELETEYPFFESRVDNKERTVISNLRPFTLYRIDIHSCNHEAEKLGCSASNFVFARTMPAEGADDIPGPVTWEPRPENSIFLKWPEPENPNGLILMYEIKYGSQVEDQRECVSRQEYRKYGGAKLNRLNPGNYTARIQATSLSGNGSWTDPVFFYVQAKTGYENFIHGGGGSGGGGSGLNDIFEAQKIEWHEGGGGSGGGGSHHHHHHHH

Binder	Kd [1] [nM]	koff [1] [s⁻¹]	kon [1] [M⁻¹ s⁻¹]	other results
IG06-hu4 (VHH) VHH: EVQLVESGGGLVQPGGSLRLSCAASRYIVSTRCLGWVRQAPGKEREEVSTIDTAGRPTYADSVKGRFTISRDGAKNFLYLQMNSLRAEDTAVYYCAAASSDNCRYFPSNLGQGTLVTVSS	4	0.00299	748000	
IG06-hu6 (VHH) VHH: EVQLVESGGGLVQPGGSLRLSCAASRYIVSTRCLGWVRQAPGNEREEVSTIDTAGRPTYADSVKGRFTISRDNSKNTLYLQMNSLRAEDTAVYYCAAASSDNCRYFPSNLGQGTLVTVSS	1.55	0.00226	1.46e+06	
IG06-hu3 (VHH) VHH: EVQLVESGGGLVQPGGSLRLSCAASRYIVSTRCLGWVRQAPGKEREEVSTIDTAGRPTYADSVKGRFTISRDGAKNFLYLQMNSLRAEDTAVYYCAAASSDNCRYFPSNWGQGTLVTVSS	27.3	0.0231	847000	
IG06-hu1 (VHH) VHH: EVQLVESGGGLVQPGGSLRLSCAASRYIVSTRCLGWVRQAPGKEREEVSTIDTAGRPTYADSVKGRFTISRDNSKNTLYLQMNSLRAEDTAVYYCAAASSDNCRYFPSNWGQGTLVTVSS	29.3	0.0265	905000	
IG06-hu2 (VHH) VHH: EVQLVESGGGLVQPGGSLRLSCAASRYIVSTRCLGWVRQAPGKEREEVSTIDTAGRPTYADSVKGRFTISRDNSKNFLYLQMNSLRAEDTAVYYCAAASSDNCRYFPSNWGQGTLVTVSS	34.7	0.0277	800000	
IG06 (VHH, Camel single-domain antibody against IGF-1R) VHH: QVQLVESGGGSVQAGGSLRLSCAASRYIVSTRCLGWVRQAPGNEREEIATIDTAGRPTYADSVKGRFTISKDGAKNFLYLQMNSLKPEDTAMYYCAAASSDNCRYFPSNLGQGTQVTVSS	0.889	0.000675	759000	
IG06-hu5 (VHH) VHH: EVQLVESGGGLVQPGGSLRLSCAASRYIVSTRCLGWVRQAPGKEREEIATIDTAGRPTYADSVKGRFTISRDGAKNFLYLQMNSLRAEDTAVYYCAAASSDNCRYFPSNLGQGTLVTVSS	2.67	0.0024	899000	
IG05-hu1 (VHH, Humanized IG05; also called IG05-hul) VHH: EVQLVESGGGLVQPGGSLRLSCTASGLTFGTFGMAWFRQAPGKEREGVSAISASSGRTYYADSVKGRFTISRDNSKNTLYLQMNSLRAEDTAVYYCAVRSKNGAGYGFWYEARLYGYWGQGTLVTVSS	0.395	0.00072	1.82e+06	
PHP1003 (Suzhou PRO-HEAL, CN113512116) (antibody, V domains shown, Positive control anti-IGF-1R antibody) VH: QVQLQESGPGLVKPSGTLSLTCAVSGGSISSSNWWSWVRQPPGKGLEWIGEIYHSGSTNYNPSLKSRVTISVDKSKNQFSLKLSSVTAADTAVYYCARWTGRTDAFDIWGQGTMVTVSS VL: not shown				IC50 (nM), inhibition of IGF1-induced pAKT signaling in C2C12 cells [2]: 4240 nM; Kd [3]: 0.262 nM; koff [3]: 0.00107 s⁻¹; kon [3]: 4.1e+06 M⁻¹ s⁻¹; Kd [4]: 0.337 nM; koff [4]: 0.00112 s⁻¹; kon [4]: 3.32e+06 M⁻¹ s⁻¹; IC50 (nM), inhibition of IGF1-induced pAKT signaling in A549 cells [5]: 33.6 nM

Now from value to binder, other results behind:

Kd [1] [nM]	koff [1] [s⁻¹]	kon [1] [M⁻¹ s⁻¹]	Binder	other results
0.403	0.000723	1.79e+06	IG05-hu3 (VHH, Humanized IG05) VHH: EVQLVESGGGLVQPGGSLRLSCTASGLTFGTFGMAWFRQAPGKEREGVSAISASSGRTYYADSVKGRFTISRDNSKNTLYLQMDALRAEDTAVYYCAVRSKNGAGYGFWYEARLYGYWGQGTLVTVSS	
0.258	0.000474	1.83e+06	IG05-hu5 (VHH, Humanized IG05) VHH: EVQLVESGGGLVQPGGSLRLSCAASGFTFGTFGMAWFRQAPGKEREGVSAISASSGRTYYADSVKGRFTISRDNSKNTLYLQMNSLRAEDTAVYYCAVRSKNGAGYGFWYEARLYGYWGQGTLVTVSS	
0.346	0.000749	2.17e+06	IG05 (VHH, Camel single-domain antibody against IGF-1R) VHH: QVQLVESGGGLVQAGGSLRLSCTASGLTFGTFGMAWFRQAPGKEREGVSAISASSGRTYYADSVKGRFTISRDNAKNTLYLQMDALKPEDTAMYYCAVRSKNGAGYGFWYEARLYGYWGQGTQVTVSS	
0.507	0.000882	1.74e+06	IG05-hu4 (VHH, Humanized IG05) VHH: EVQLVESGGGLVQPGGSLRLSCAASGLTFGTFGMAWFRQAPGKEREGVSAISASSGRTYYADSVKGRFTISRDNSKNTLYLQMNSLRAEDTAVYYCAVRSKNGAGYGFWYEARLYGYWGQGTLVTVSS	
0.361	0.000772	2.14e+06	IG05-hu2 (VHH, Humanized IG05) VHH: EVQLVESGGGLVQPGGSLRLSCTASGLTFGTFGMAWFRQAPGKEREGVSAISASSGRTYYADSVKGRFTISRDNAKNTLYLQMNSLRAEDTAVYYCAVRSKNGAGYGFWYEARLYGYWGQGTLVTVSS	
